Source: paper PMC4627807, “Klotho Regulates 14-3-3ζ Monomerization and Binding to the ASK1 Signaling Complex in Response to Oxidative Stress” (PLoS ONE, 2015)

What was measured:
14-3-3ζ = molecular target: T1, 14-3-3ζ (human (endogenous in HEK 293), UniProt P63104 1-245); test: co-IP; endogenous proteins; HEK 293 lysate precipitated with 14-3-3ζ antibody, protein A agarose; Trx by Western blot; cells treated with buffer, 200 pM Klotho or NAC for 40 min; Trx released from the beads only with DTT, 2-ME or THP; settings: partners not purified
T1 construct: 14-3-3ζ, endogenous in HEK 293 cells; Klotho treatment of the cells raises phosphorylation at Ser-58 and the monomer level; the phosphorylated form was not isolated as a molecule of its own; also called 14-3-3zeta; endogenous 14-3-3ζ; source: endogenous, HEK 293 lysate
T1 sequence (looked up): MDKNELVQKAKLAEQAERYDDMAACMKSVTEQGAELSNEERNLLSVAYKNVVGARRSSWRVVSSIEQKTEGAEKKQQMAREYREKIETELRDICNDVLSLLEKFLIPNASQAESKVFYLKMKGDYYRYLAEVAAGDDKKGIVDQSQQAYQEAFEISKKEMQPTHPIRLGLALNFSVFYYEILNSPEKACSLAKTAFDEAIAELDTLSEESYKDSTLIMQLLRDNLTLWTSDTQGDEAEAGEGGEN

[1] = molecular target: GST-tagged 14-3-3ζ dimer deficient mutant (Dm) (UniProt P63104); test: pull-down; lysates of HEK 293 cells transfected with GST-14-3-3ζ Wt or Dm adsorbed onto glutathione sepharose, binding buffer 20 mM Tris-Cl pH 7.5, 2 mM EDTA, 1 mM EGTA, 80 mM NaCl; endogenous Trx by Western blot; cells treated with buffer or secreted Klotho for 40 min

fold increase of bound Trx, Klotho-treated versus buffer-treated cells (14-3-3ζ): ~2 fold | fold increase of bound Trx relative to 14-3-3ζwt [1]: 2 fold
B1: thioredoxin (Trx) (natural protein, human (endogenous in HEK 293), UniProt P10599 1-105, looked up)
chain: MVKQIESKTAFQEALDAAGDKLVVVDFSATWCGPCKMIKPFFHSLSEKYSNVIFLEVDVDDCQDVASECEVKCMPTFQFFKKGQKVGEFSGANKEKLEATINELV
notes: thioredoxin (Trx), endogenous in HEK 293 cells; active site cysteines named as Cys32/35; Detected by Western blot or iCE with a Trx antibody; source: endogenous, HEK 293 lysate
